The supplement of paper PMC12764529
± gives the half width of the 95% confidence interval.

Assays:
[1] = folding stability dG unfold from trypsin proteolysis; higher = more stable
Summary of the method: (§1)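 Sequencing followed digestion of designed mini-proteins with trypsin and chymotrypsin, each at 11 concentrations in threefold dilutions together with a no-protease condition. The mini-proteins were under 80 residues, had no cysteine, sat in a PA-tagged cDNA display construct, and were kept only if AlphaFold2 dimer inter-PAE was above 15. From the counts, Bayesian fitting gave K50, and unfolding free energy was derived against a sequence-predicted unfolded-state K50 and a shared folded-state K50, per protease or combined.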

[2] = folding stability dG unfold from chymotrypsin proteolysis; higher = more stable
Summary of the method: as §1

[3] = folding stability dG unfold (combined trypsin and chymotrypsin); higher = more stable
Summary of the method: as §1

Row | Sequence | folding stability dG unfold [1] [kcal/mol] | folding stability dG unfold [2] [kcal/mol] | folding stability dG unfold [3] [kcal/mol]
1 | SALKGLKITEIKEVTNEDGSKSLVVRVDGYLLVFDLDTKKLTLVPLPPVTVTVTVYEKKADPNKPEYKKKSA [r9_1065_TrROS_Hall] | 1.71 ± 0.042 | 3.15 ± 0.056 | 2.77 ± 0.16
2 | SALKISVTVDPDGPTATATLELYNPETGKPTTLTATIHRLPDGSYLVTIHFPSNNKTITFTVPEDGVITLSA [r9_1220_TrMRF] | 2.38 ± 0.09 | 3.48 ± 0.038 | 3.03 ± 0.12
3 | SALPNLKIEITLNEDGTITITVTANGEVIATATLTVTLPPPPVEKEVLDANGNKRTVRYDAKTGKAEVFDSA [r9_343_TrROS_Hall] | 0.106 ± 0.17 | 0.065 ± 0.29 | 0.0728 ± 0.47
4 | SALTLEELEKRYPELPSELLEKIKEEAEKVPKDRTLTFLLTAPDGRRVRITVTKPDTVTVTVLPPGVPEASA [r9_1024_JUSTAS] | 4.13 ± 0.3 | 4.12 ± 0.094 | 4.14 ± 0.14
5 | SALWVIKDTIKPPNGKKRKISIAIPNDGLYVWFNGGSFPIPLKEIKKIMENFPGYQIDDIEIMPLDELKSAG [r14_336_TrROS] | 0.798 ± 0.19 | -0.15 ± 0.53 | 0.448 ± 0.32
6 | SAMDLLRERGYDVEEVTKLRDEVLPNGTIVTLYEVTVRLPDRVITTPIKVSGESEEEAEKLAYETVARESAG [r14_726_JUSTAS] | 0.49 ± 0.031 | 0.582 ± 0.071 | 0.543 ± 0.069
7 | SAMEIEKIEIEKEEVNGKLYYRIRVKIINKETGKEIELELEFKSLEDALEALKKLPNITRVEITEIEPVSAG [r14_464_TrROS_Hall] | 3.55 ± 0.11 | 5.18 ± 0.091 | 4.93 ± 0.093
8 | SAMEIVIEFESPEEAEKAIKEYVEKKGLKAVEIKMEFEPKWVEEKTPTGVKVTKEKYVAKVTVVTSKELSAG [r14_773_JUSTAS] | 0.457 ± 0.21 | 2.03 ± 0.095 | 1.28 ± 0.32
9 | SAMELSPEERAELLIEAVRRKLEEARKKGIPNKKVKVTIVLSEEEREALAKRIEEELKEEGYEVEIVPESAG [r14_908_TrROS_Hall] | 2.17 ± 0.068 | 2.61 ± 0.13 | 2.29 ± 0.17
10 | SAMEVKIEKVEVKDGTVRITVTVKVSEEQLEKVKELAEKLKEKGYEVKVVKVEKLEDGTIKVEIEVKPKSAG [r14_354_TrROS_Hall] | 2.7 ± 0.32 | 2.36 ± 0.17 | 2.66 ± 0.92
11 | SAMIEIEAVFPPNVSLEEAVEAVKAEIESKGFEILEVKVEKLPNGEVLVRAVVKVKPEMPPEEIKKLAESAG [r14_110_TrMRF] | 1.5 ± 0.06 | 2.44 ± 0.2 | 2.07 ± 0.19
12 | SAMIEIEIEVEEREDGRLIVRVRIRNKETGEEIELELEMSREEVEKLLEELKKLFPNLEIVEVEIRELPSAG [r14_969_TrROS_Hall] | 4 ± 0.15 | 3.29 ± 0.24 | 3.98 ± 0.45
13 | SAMIEILSIEEFTRPDGKKLYKITLKTPDPEKVLEKLIELGVKPEIDPNNPDILIAVFPYEKIEEILKESAG [r14_777_TrMRF] | 3.12 ± 0.14 | 5.05 ± 0.23 | 4.77 ± 0.31
14 | SAMIMIRVEYPNGKTWPIMIPLRTPDGDPTKEEVEEIAERIADEIAEEHGGDNVKIEIQVMPMPPEENPSAG [r14_378_TrROS] | 2.23 ± 0.081 | 1.5 ± 0.12 | 1.82 ± 0.24
15 | SAMIVVEIEESRSPTSPERTVTVTVKKPDGTVVKTIPITVSGANPSATPEEVRALAEPIVEELVKKGLLSAG [r14_120_JUSTAS] | 1.44 ± 0.026 | 1.47 ± 0.045 | 1.55 ± 0.13
16 | SAMKAEVYILVYDKNGKLIAKIPIKAEEVLEDPEKFLETVKTVVEEFSGIGVKLKIYFPSTGKEVEIEASAG [r14_972_TrMRF] | 4.2 ± 0.65 | 3.35 ± 0.045 | 3.6 ± 0.23
17 | SAMKEGEEYEPVEKKKITIKNKKTNKTIEIEVVRNKKTNKYIVKITTKDGKKIEIVVSKEELEKLLKKLSAG [r14_240_TrROS_Hall] | 2.25 ± 0.19 | 3.08 ± 0.17 | 3.01 ± 0.26
18 | SAMKETEIPDPVTGNTYTVIDFDDATVVIKNYPDSLTITIIPPPSNTSTTIPMKPGEEEKVLKELGIPPSAG [r14_4_JUSTAS] | 0.591 ± 0.087 | 0.316 ± 0.23 | 0.568 ± 0.16
19 | SAMKIEIIEEKEGEIIIKIEATKEEVEELAEELKKKFPGVEVEVEYDKETKKVYIRIKFKKKPSEEELKSAG [r14_600_TrROS_Hall] | 3.05 ± 0.62 | 3.9 ± 0.33 | 3.82 ± 0.31
20 | SAMKITDVTVERNPDNGWYEVMVTFEFDNGPVTVKIWMPRDGNMPIDVYDMGNGEPKGEIWIPADQIKFSAG [r14_608_TrROS] | 0.893 ± 0.022 | 1.35 ± 0.1 | 1.15 ± 0.075
21 | SAMKITIEEVEVKEGDTVTIRIDASEEELENFLKELAEKLGAEVVEVEVKKNENGSLEVTVKVKEVKKPSAG [r14_655_TrROS_Hall] | 1.2 ± 0.11 | 0.476 ± 0.13 | 1.04 ± 0.17

Row | Sequence | folding stability dG unfold [1] [kcal/mol] | folding stability dG unfold [2] [kcal/mol] | folding stability dG unfold [3] [kcal/mol]
22 | SAMKITIEVIKLPDGYYVVRITVYDKNGEKVEERELVFSSLEDLLAALKELFPDQKVTVEIRKVTKEELSAG [r14_964_TrROS_Hall] | 2.16 ± 0.16 | 4.14 ± 0.23 | 3.77 ± 0.18
23 | SAMKIVEIVEYDKEKKKIRIKIEVNGKLLEIEIEAESEEEVEEALKKLKEELEFELPDGKKVRITEIEISAG [r14_422_TrROS_Hall] | 0.749 ± 0.15 | 2.08 ± 0.14 | 1.63 ± 0.28
24 | SAMKKLTEEEIEKLAKELAKEGKVEIKIKVEKKVVKNKNGKKKEVTKVKIEIKAPPEAKKKLEKLKKKLSAG [r14_628_TrROS_Hall] | 0.415 ± 0.34 | 0.992 ± 0.19 | 0.359 ± 0.79
25 | SAMKKPPKTLTLVIVVKVPEEEMTEEQLEELARELAEALAPPGEKVEVKVEVERLPDGTVVVKIEIKLESAG [r14_389_TrROS_Hall] | 2.28 ± 0.091 | 1.98 ± 0.067 | 2.22 ± 0.17
26 | SAMKLTTLSESSDPATGVRYLTVAIPSSQDDLIKEIAEELEKKGVKATILTPNVPAGSSVTIKLEFKGKSAG [r14_354_JUSTAS] | 0.109 ± 0.17 | 0.66 ± 0.16 | 0.475 ± 0.17
27 | SAMKLVTLEDGTVIETENLSLEEIKERFGGGSISVSDVPPSPAFRVESEEEREALEKEVGPGFVVVEEGSAG [r14_445_JUSTAS] | 0.578 ± 0.032 | 0.108 ± 0.11 | 0.414 ± 0.082
28 | SAMKVTIEPLEDGSTVITLDDGTEITFSAPGSGAPILAKVTPLPNTGVVRVDIYHPEGGKLLAPLVVPLSAG [r14_975_TrMRF] | 0.657 ± 0.034 | 0.579 ± 0.094 | 0.734 ± 0.053
29 | SAMKYLVEVTADLGGPSVRYELDAESIEEAIEKVKEKLKPLFPDAPLKNITLTFHDPSSDETTTVNIVESAG [r14_54_JUSTAS] | 3.36 ± 0.067 | 3.54 ± 0.031 | 3.49 ± 0.062
30 | SAMKYTITVKGDIESVRNFLLDKLDFDIEVSSTPDGTTVITITMDEEKVSELKELLKAHPNFPTTVNKESAG [r14_521_JUSTAS] | 2.75 ± 0.086 | 4.12 ± 0.044 | 3.83 ± 0.11
31 | SAMLPEGERKPFLVKVKIETPEGTPEFEAPVITEPPQKIHVSIDFDIPEGEHKIKIEFFGPKLEFEFDISAG [r14_280_TrMRF] | 1.87 ± 0.11 | 2.42 ± 0.12 | 2.29 ± 0.44
32 | SAMMTPEERAFVERLRALFAERGGRIEIRFFEEPDRIEILVEEDDPELIREIREELARIPFPISRIVEESAG [r14_284_TrMRF] | 2.434 ± 0.016 | 3.695 ± 0.012 | 3.33 ± 0.04
33 | SAMMVVYYDPETGELVLVDPSEIPPELVEKGIEPVRLVPLRILVEVESEEEAEELARLFPDLVEVSLNPSAG [r14_638_TrMRF] | 1.97 ± 0.045 | 1.83 ± 0.032 | 1.88 ± 0.098
34 | SAMPAENMTPEEAAELALAYVERFRAEVEALGGPIPADTEIVVPVTLEGPPVEIKITFINPDEVEVEVASAG [r14_501_TrMRF] | 1.46 ± 0.15 | 1.17 ± 0.09 | 1.34 ± 0.17
35 | SAMPIESVEFHPEEGVITLRFRAPAHPDAEKFEIEVVVDGAEAGEIEVEVDPETNEVRALVRVKIPKGASAG [r14_244_TrMRF] | 2.71 ± 0.1 | 4.23 ± 0.059 | 3.7 ± 0.25
36 | SAMPIPNKNVVIRAKRSPDGTWDLTITVDNEKLGSKKAKTEEELKALVEEIAKEIAEKLGPGNVTVVEESAG [r14_791_JUSTAS] | 2.74 ± 0.28 | 2.54 ± 0.15 | 2.69 ± 0.22
37 | SAMPIQIMVERDPDDGYIKVTIMFRSDSPEEAYELIETLFENLGVEVNIERYPEEGYFMIEVEIRLPPGSAG [r14_424_TrROS] | 3.45 ± 0.23 | 4.13 ± 0.33 | 3.89 ± 0.21
38 | SAMPLEDMTPEQAEEFAKEFINRFQQENQKKGGPIPPGQEIEIPVRYKGGPVYIKITVTNPGNINIEVESAG [r14_501_TrROS] | 0.448 ± 0.048 | 0.708 ± 0.095 | 0.663 ± 0.13
39 | SAMRMISFPIESPEELEDELEEKFGVEVETFPDGMRMIKFRRNNEPVIIMIPPNNGHITIIPPEDMDKMSAG [r14_402_TrROS] | 0.685 ± 0.19 | 1.28 ± 0.21 | 1.01 ± 0.15
40 | SAMSPEEIRARARALLEEKYPDKPYTLLSVEVDPSTGRVTVTWESPTPEKTTVTTPLTVTFGADGSLRESAG [r14_183_JUSTAS] | 2.028 ± 0.012 | 1.973 ± 0.017 | 2.02 ± 0.029
41 | SAMTITVTAPPGYTLNVTVTLAGGVPLTRTFSPSQSIDITIPEGTPFSLTVTTTAPGGEVATSTLTVPLSAG [r14_568_JUSTAS] | 3.19 ± 0.12 | 3.171 ± 0.018 | 3.19 ± 0.094
